From IntAct's records for PubMed 11356191

Molecular target: ptn13_human PTPN13 (UniProt Q12923)
Sequence (Q12923 whole entry): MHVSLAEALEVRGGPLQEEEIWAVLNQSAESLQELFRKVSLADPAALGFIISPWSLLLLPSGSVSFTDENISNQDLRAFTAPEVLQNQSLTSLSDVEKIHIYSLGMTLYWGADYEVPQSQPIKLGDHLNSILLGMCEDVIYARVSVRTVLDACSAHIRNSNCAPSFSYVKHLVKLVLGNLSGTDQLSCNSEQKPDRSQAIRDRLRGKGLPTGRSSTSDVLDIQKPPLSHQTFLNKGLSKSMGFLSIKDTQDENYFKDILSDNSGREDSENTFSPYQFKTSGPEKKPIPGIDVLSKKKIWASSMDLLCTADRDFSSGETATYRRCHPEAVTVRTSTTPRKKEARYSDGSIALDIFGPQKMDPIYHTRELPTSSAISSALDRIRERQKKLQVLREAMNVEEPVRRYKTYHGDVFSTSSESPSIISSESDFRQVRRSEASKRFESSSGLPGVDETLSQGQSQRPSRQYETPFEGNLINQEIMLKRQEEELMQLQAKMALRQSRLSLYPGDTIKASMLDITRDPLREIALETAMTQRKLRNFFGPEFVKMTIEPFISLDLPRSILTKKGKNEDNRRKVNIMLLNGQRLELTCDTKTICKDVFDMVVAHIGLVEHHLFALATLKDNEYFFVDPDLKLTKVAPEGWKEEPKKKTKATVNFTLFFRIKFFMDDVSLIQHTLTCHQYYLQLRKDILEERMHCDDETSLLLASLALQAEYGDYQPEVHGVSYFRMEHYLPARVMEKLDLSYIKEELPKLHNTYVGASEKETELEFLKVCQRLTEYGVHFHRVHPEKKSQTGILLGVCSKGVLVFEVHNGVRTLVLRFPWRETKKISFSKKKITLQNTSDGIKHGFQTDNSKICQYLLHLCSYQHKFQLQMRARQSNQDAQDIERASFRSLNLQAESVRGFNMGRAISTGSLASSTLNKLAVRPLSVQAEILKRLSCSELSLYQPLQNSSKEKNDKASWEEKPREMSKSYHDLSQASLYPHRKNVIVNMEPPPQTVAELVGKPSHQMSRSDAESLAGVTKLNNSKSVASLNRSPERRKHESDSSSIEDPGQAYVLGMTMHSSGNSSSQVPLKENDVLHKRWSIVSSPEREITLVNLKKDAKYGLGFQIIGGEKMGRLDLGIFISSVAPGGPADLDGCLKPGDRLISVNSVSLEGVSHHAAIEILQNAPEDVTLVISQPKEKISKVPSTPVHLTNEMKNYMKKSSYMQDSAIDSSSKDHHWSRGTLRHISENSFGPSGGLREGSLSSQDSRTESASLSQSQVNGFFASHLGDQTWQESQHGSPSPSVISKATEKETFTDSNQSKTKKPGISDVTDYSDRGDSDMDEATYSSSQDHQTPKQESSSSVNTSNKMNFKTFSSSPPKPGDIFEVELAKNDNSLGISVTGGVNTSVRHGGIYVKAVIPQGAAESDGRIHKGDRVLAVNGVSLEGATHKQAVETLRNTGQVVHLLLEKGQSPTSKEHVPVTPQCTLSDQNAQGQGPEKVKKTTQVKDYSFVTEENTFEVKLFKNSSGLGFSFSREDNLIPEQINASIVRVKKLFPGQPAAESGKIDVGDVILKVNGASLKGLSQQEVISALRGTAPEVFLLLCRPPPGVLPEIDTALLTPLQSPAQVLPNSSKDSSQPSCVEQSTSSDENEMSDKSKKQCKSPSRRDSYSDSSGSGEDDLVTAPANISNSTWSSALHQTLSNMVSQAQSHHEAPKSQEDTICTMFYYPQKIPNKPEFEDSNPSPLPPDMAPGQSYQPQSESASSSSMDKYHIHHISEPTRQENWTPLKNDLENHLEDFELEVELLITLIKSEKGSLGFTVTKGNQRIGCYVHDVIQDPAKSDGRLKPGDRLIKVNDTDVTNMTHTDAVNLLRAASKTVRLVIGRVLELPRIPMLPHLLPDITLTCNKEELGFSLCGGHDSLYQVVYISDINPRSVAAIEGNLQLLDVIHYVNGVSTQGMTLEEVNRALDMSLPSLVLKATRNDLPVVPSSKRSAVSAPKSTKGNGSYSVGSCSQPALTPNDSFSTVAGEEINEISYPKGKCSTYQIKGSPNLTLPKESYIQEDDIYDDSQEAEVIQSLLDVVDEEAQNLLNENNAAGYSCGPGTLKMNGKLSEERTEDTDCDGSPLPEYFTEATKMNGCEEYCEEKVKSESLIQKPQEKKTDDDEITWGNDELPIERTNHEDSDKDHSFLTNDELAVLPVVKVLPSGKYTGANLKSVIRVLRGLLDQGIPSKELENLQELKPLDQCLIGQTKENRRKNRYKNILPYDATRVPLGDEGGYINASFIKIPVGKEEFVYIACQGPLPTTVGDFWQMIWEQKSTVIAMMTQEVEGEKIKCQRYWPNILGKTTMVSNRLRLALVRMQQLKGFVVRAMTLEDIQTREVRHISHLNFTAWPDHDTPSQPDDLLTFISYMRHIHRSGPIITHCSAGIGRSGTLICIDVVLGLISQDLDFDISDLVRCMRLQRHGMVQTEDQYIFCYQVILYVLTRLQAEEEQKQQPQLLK

effect of a mutation on the interaction: disrupting interaction
Substance: Serine/threonine-protein kinase N2 (Homo sapiens), Q16513 C984S
